Measured values taken from patent US20200292536A1.

Experiments:
[1] = target: MYC peptide Ac-…-amide (amino acids 9-24) (human); test: IHC with clone Y69 on donor block sections, alternative fixatives
[2] = target: MYC peptide Ac-…-amide (amino acids 9-24) (human); test: chromogenic IHC on BCL2/MYC peptide TMA
[3] = target: BCL2 peptide Ac-…-amide (amino acids 41-54 of human BCL2 with linkers) (human); test: chromogenic IHC on peptide/BSA gel TMA, antigen concentration at half-maximum signal
[4] = target: Bovine serum albumin (BSA; Ultra Pure) (bovine) (UniProt P02769); test: chromogenic IHC on TMA, cores without peptide
[5] = target: BCL2 peptide Ac-…-amide (amino acids 41-54 of human BCL2 with linkers) (human); test: chromogenic IHC, aggregate of 10 assays; BCL2 peptide 2.5E-06 M as formulated
[6] = target: BCL2 peptide Ac-…-amide (amino acids 41-54 of human BCL2 with linkers) (human); test: chromogenic IHC, aggregate of 10 assays; BCL2 peptide 2.5E-07 M as formulated
[7] = target: BCL2 peptide Ac-…-amide (amino acids 41-54 of human BCL2 with linkers) (human); test: chromogenic IHC, aggregate of 10 assays; BCL2 peptide 2.5E-05 M as formulated
[8] = target: BCL2 peptide Ac-…-amide (amino acids 41-54 of human BCL2 with linkers) (human); test: IHC with clone 124 on donor block sections, alternative fixatives
[9] = target: BCL2 peptide Ac-…-amide (amino acids 41-54 of human BCL2 with linkers) (human); test: chromogenic IHC on BCL2 peptide TMA with or without prior antigen retrieval
[10] = target: Bovine serum albumin (BSA; Ultra Pure) (bovine) (UniProt P02769); test: immunofluorescent IHC on TMA, cores without peptide
[11] = target: Bovine serum albumin (BSA; Ultra Pure) (bovine) (UniProt P02769); test: chromogenic IHC, aggregate of 10 assays; cores without peptide
[12] = target: BCL2 peptide variant with N-terminal arginine (R-C) (human); test: chromogenic IHC with clone 124 on peptide/BSA gel TMA
[13] = target: BCL2 peptide Ac-…-amide (amino acids 41-54 of human BCL2 with linkers) (human); test: chromogenic IHC, aggregate of 10 assays; BCL2 peptide 2.5E-04 M as formulated
[14] = target: Bovine serum albumin (BSA; Ultra Pure) (bovine) (UniProt P02769); test: chromogenic IHC, aggregate of 10 assays; BSA only cores
[15] = target: BCL2 peptide Ac-…-amide (amino acids 41-54 of human BCL2 with linkers) (human); test: chromogenic IHC, aggregate of 10 assays; BCL2 peptide 2.5E-08 M as formulated
[16] = target: BCL2 peptide Ac-…-amide (amino acids 41-54 of human BCL2 with linkers) (human); test: chromogenic IHC, aggregate of 10 assays

Chain of BCL2 peptide Ac-…-amide (amino acids 41-54 of human BCL2 with linkers) (human) (peptide, as listed by the source): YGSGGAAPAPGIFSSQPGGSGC
Chain of UniProt P02769 (P02769 25-607 limits assumed): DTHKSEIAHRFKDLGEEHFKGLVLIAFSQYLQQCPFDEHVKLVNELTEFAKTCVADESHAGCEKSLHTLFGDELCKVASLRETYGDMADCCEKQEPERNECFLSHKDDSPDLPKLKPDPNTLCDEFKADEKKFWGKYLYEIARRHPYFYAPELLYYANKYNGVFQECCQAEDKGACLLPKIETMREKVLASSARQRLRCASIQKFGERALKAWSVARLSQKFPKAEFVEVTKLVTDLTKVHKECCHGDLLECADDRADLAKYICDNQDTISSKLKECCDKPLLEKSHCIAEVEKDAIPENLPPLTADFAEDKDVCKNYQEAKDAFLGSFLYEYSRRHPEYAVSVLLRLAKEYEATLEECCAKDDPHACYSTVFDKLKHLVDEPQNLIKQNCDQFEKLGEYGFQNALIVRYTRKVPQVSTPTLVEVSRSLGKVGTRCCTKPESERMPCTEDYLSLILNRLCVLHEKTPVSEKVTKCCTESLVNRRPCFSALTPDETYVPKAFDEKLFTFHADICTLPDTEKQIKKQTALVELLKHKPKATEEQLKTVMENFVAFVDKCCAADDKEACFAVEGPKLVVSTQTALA
Chain of MYC peptide Ac-…-amide (amino acids 9-24) (human) (peptide, as listed by the source): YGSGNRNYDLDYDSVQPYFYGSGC
Chain of BCL2 peptide variant with N-terminal arginine (R-C) (human) (peptide, as listed by the source mutant): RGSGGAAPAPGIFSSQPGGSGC

Row | Substance | fold signal, formaldehyde fixation against zinc fixation during heating [1] | ACHM, fold lower than the BCL2 protocol (clone 124 on BCL2 peptide) [2] | ACHM, fold lower than the ACHM for the chromogenic clone 124 assay [3] | ACHM, fold lower than the fluorescent clone 124 assay [3] | non-specific signal in cores containing no added peptide, % of the maximum detectable signal [4] | Intensity Mean (pixel intensity units) [5] | Intensity Mean (pixel intensity units) [6] | Intensity Mean (pixel intensity units) [7] | fold signal, formaldehyde fixation against zinc fixation during heating [8] | fold signal strength with against without antigen retrieval [9] | non-specific signal in cores containing no added peptide, fold lower than in the chromogenic clone 124 assay [10] | limit of blank (LOB) [11] | ACHM (antigen concentration at half-maximum signal) [12] | ACHM, fold lower than the original Y-C variant [12] | Intensity Mean (pixel intensity units) [13] | Intensity Mean (pixel intensity units) [14] | Intensity Mean (pixel intensity units) [15] | limit of detection (LOD), peptide concentration [16] | limit of detection (LOD), signal [16]
1 | rabbit anti-human MYC clone Y69 (antibody) | 10 fold | 4 fold | – | – | – | – | – | – | – | – | – | – | – | – | – | – | – | – | –
2 | rabbit anti-human BCL2 clone EPR17509 (antibody) | – | – | 8 fold | > 50 fold | 23% | – | – | – | – | – | – | – | – | – | – | – | – | – | –
3 | CONFIRM anti-bcl-2 (124) Mouse Monoclonal Primary Antibody | – | – | – | – | 2.7% | 105 | 18 | 202 | 10 fold | 6 fold | 1000 fold | 8 units | 443 nM | 6 fold | 212 | 4.8 | 6.1 | 230 nM | 16 units
